Data taken from the supplement of paper PMC10567573.

B1: RIPK4 (parent)
chain: VIDLFDEQGLSALHLAAQGRHAQT
B2: MFF (parent)
chain: MAEISRIQYEMEYTEGISQRMRVP

Variants of: B1
Experiment: protein stability index of a GFP-peptide fusion (GPS, HEK-293T) (PSI 1-6); higher = more stable
Conditions: c terminus: a fixed tail appended
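Also: lentivirally expressed fusions sorted by FACS into six bins by GFP to DsRed ratio, PSI derived from sequencing read proportions per bin multiplied by bin number.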

Point of comparison: VISLFDEQGLSALHLAAQGRHAQT [D3S], protein stability index 2.69. Against it:
- VIDLFDEPGLSALHLAAQGRHAQT [Q8P] — higher, 3.22
- VIDLFDECGLSALHLAAQGRHAQT [Q8C] — lower, 1.76
- VIDLFDEAGLSALHLAAQGRHAQT [Q8A] — higher, 2.73
- VIDLFDELGLSALHLAAQGRHAQT [Q8L] — lower, 1.66
- VIDLFDEYGLSALHLAAQGRHAQT [Q8Y] — lower, 2.25
- VIDLFDEGGLSALHLAAQGRHAQT [Q8G] — higher, 3.12
- VIDLFDEVGLSALHLAAQGRHAQT [Q8V] — lower, 2.53
- VIDLFDEFGLSALHLAAQGRHAQT [Q8F] — lower, 2.05
- VIDLFDEMGLSALHLAAQGRHAQT [Q8M] — lower, 2.08
- VIDLFDEDGLSALHLAAQGRHAQT [Q8D] — higher, 3.07
- VIDLFDEHGLSALHLAAQGRHAQT [Q8H] — lower, 2.61
- VIDLFDEKGLSALHLAAQGRHAQT [Q8K] — lower, 2.58
- VIDLFDEIGLSALHLAAQGRHAQT [Q8I] — lower, 1.46
- VIDLFDENGLSALHLAAQGRHAQT [Q8N] — higher, 2.86
- VIDLFDERGLSALHLAAQGRHAQT [Q8R] — higher, 2.82
- VIDLFDESGLSALHLAAQGRHAQT [Q8S] — lower, 2.65
- VIDLFDEWGLSALHLAAQGRHAQT [Q8W] — lower, 1.45
- VIDLFDETGLSALHLAAQGRHAQT [Q8T] — lower, 2.65
- VIDLFDEEGLSALHLAAQGRHAQT [Q8E] — higher, 2.98
- VIHLFDEQGLSALHLAAQGRHAQT [D3H] — lower, 1.68
- VIYLFDEQGLSALHLAAQGRHAQT [D3Y] — lower, 1.1
- VIILFDEQGLSALHLAAQGRHAQT [D3I] — higher, 2.71
- VITLFDEQGLSALHLAAQGRHAQT [D3T] — lower, 2.17
- VIKLFDEQGLSALHLAAQGRHAQT [D3K] — lower, 2.31
- VIWLFDEQGLSALHLAAQGRHAQT [D3W] — higher, 2.95
- VIMLFDEQGLSALHLAAQGRHAQT [D3M] — lower, 1.36
- VIQLFDEQGLSALHLAAQGRHAQT [D3Q] — lower, 2.46
- VIPLFDEQGLSALHLAAQGRHAQT [D3P] — higher, 2.81
- VIRLFDEQGLSALHLAAQGRHAQT [D3R] — lower, 2.34
- VIELFDEQGLSALHLAAQGRHAQT [D3E] — lower, 2.66
- VIFLFDEQGLSALHLAAQGRHAQT [D3F] — higher, 3.19
- VIALFDEQGLSALHLAAQGRHAQT [D3A] — lower, 1.79
- VICLFDEQGLSALHLAAQGRHAQT [D3C] — lower, 2.25
- VIGLFDEQGLSALHLAAQGRHAQT [D3G] — lower, 2.58
- VINLFDEQGLSALHLAAQGRHAQT [D3N] — higher, 2.7
- VIVLFDEQGLSALHLAAQGRHAQT [D3V] — lower, 1.58
- VILLFDEQGLSALHLAAQGRHAQT [D3L] — lower, 1.89
- VIDLKDEQGLSALHLAAQGRHAQT [F5K] — higher, 4.16
- VIDLADEQGLSALHLAAQGRHAQT [F5A] — higher, 4.21
- VIDLGDEQGLSALHLAAQGRHAQT [F5G] — higher, 3.86
- VIDLVDEQGLSALHLAAQGRHAQT [F5V] — higher, 3.39
- VIDLMDEQGLSALHLAAQGRHAQT [F5M] — higher, 2.78
- VIDLSDEQGLSALHLAAQGRHAQT [F5S] — higher, 3.67
- VIDLTDEQGLSALHLAAQGRHAQT [F5T] — higher, 3.94
- VIDLYDEQGLSALHLAAQGRHAQT [F5Y] — higher, 3.22
- VIDLLDEQGLSALHLAAQGRHAQT [F5L] — higher, 2.95
- VIDLEDEQGLSALHLAAQGRHAQT [F5E] — higher, 4.6
- VIDLHDEQGLSALHLAAQGRHAQT [F5H] — higher, 3.9
- VIDLRDEQGLSALHLAAQGRHAQT [F5R] — higher, 3.64
- VIDLQDEQGLSALHLAAQGRHAQT [F5Q] — higher, 3.91
- VIDLWDEQGLSALHLAAQGRHAQT [F5W] — lower, 2.44
- VIDLIDEQGLSALHLAAQGRHAQT [F5I] — higher, 2.89
- VIDLDDEQGLSALHLAAQGRHAQT [F5D] — higher, 4.18
- VIDLNDEQGLSALHLAAQGRHAQT [F5N] — higher, 2.98
- VIDLPDEQGLSALHLAAQGRHAQT [F5P] — higher, 4.81
- VIDLCDEQGLSALHLAAQGRHAQT [F5C] — higher, 3.08

Variants of: B2
Experiment: as above
Conditions: c terminus: a fixed tail appended

Point of comparison: MAEISRIQYEMEYTEGIHQRMRVP [S18H], protein stability index 2.13. Against it:
- MAEISRIHYEMEYTEGISQRMRVP [Q8H] — higher, 2.47
- MAEISRIWYEMEYTEGISQRMRVP [Q8W] — lower, 1.49
- MAEISRIQYEMEYQEGISQRMRVP [T14Q] — higher, 3.08
- MAEISRIQYEMEYDEGISQRMRVP [T14D] — higher, 4.16
- MAEISRIQVEMEYTEGISQRMRVP [Y9V] — higher, 2.15
- MAEISRIQNEMEYTEGISQRMRVP [Y9N] — higher, 3.07
- MAEISRIQYKMEYTEGISQRMRVP [E10K] — higher, 2.66
- VAEISRIQYEMEYTEGISQRMRVP [M1V] — higher, 2.85
- AAEISRIQYEMEYTEGISQRMRVP [M1A] — higher, 2.92
- MAEISRIQYEMEYTEGNSQRMRVP [I17N] — higher, 3.3
- MAEISRIQYEMEYTEGFSQRMRVP [I17F] — lower, 1.99
- MAEINRIQYEMEYTEGISQRMRVP [S5N] — higher, 2.53
- MAEISRIQYEMEYTEGISQCMRVP [R20C] — higher, 2.41
- MAEISRIQYEMEYTEGISQEMRVP [R20E] — higher, 3.1
- MAEISRIQYEMEYTEGISQRDRVP [M21D] — higher, 3.41
- MAEISRIQYEMEYTEGISQRMRGP [V23G] — higher, 2.72
- MAEISRIQYEMEYTEGISQRMRHP [V23H] — higher, 2.54
- MAEISRIQYEMEYTEAISQRMRVP [G16A] — higher, 2.69
- MAEISRIQYEMEYTEVISQRMRVP [G16V] — lower, 2.07
- MAEISRIQYEMEYTEEISQRMRVP [G16E] — higher, 3.12
- MAEISRIQYEMEYTEGISVRMRVP [Q19V] — lower, 1.62
- MAEISRIQYEMEYTEGISHRMRVP [Q19H] — higher, 2.34
- MAEISRIQYEMEYTEGISDRMRVP [Q19D] — higher, 3.16
- MAEISRIQYEMEYTEGISCRMRVP [Q19C] — higher, 2.41
- MAEISRIQYEMEYTEGISIRMRVP [Q19I] — lower, 1.89
- MAEISRIQYEQEYTEGISQRMRVP [M11Q] — higher, 3.35
- MAEISRIQYEWEYTEGISQRMRVP [M11W] — lower, 1.99
- MAEISRIQYEAEYTEGISQRMRVP [M11A] — higher, 3.68
- MAEISRIQYEMYYTEGISQRMRVP [E12Y] — lower, 1.76
- MAEISRIQYEMEWTEGISQRMRVP [Y13W] — higher, 2.77
- MIEISRIQYEMEYTEGISQRMRVP [A2I] — higher, 2.17
- MCEISRIQYEMEYTEGISQRMRVP [A2C] — higher, 2.25
- MAEISRIQYEMEYTEGIRQRMRVP [S18R] — higher, 2.27
- MAEASRIQYEMEYTEGISQRMRVP [I4A] — higher, 3.38
- MAEVSRIQYEMEYTEGISQRMRVP [I4V] — higher, 2.74
- MAEISRMQYEMEYTEGISQRMRVP [I7M] — higher, 2.93
